Experimental data reported in the supplement of paper PMC5998384.

Assays:
HeLa Kyoto [1] = test: solubility change mitosis vs G1/S (difference of NP-40 vs SDS log2 ratios) (log2 ratio difference); higher = more soluble in mitosis
HeLa Kyoto [2] = test: solubility in G1/S (NP-40 vs SDS abundance) (log2 ratio); higher = more soluble; conditions: cell cycle stage: G1/S
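Throughout, for solubility change mitosis vs G1/S (difference of NP-40 vs SDS log2 ratios): synchronized HeLa Kyoto cells (double thymidine block for G1/S, nocodazole release for mitosis), protein amounts in NP-40 versus SDS lysates quantified by mass spectrometry, three biological replicates.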
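Throughout, for solubility in G1/S (NP-40 vs SDS abundance): HeLa Kyoto cells arrested at G1/S by double thymidine block, proteins quantified by TMT10plex mass spectrometry in mild NP-40 versus SDS extracts, three biological replicates.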

Sequence: MDGAVMEGPLFLQSQRFGTKRWRKTWAVLYPASPHGVARLEFFDHKGSSSGGGRGSSRRLDCKVIRLAECVSVAPVTVETPPEPGATAFRLDTAQRSHLLAADAPSSAAWVQTLCRNAFPKGSWTLAPTDNPPKLSALEMLENSLYSPTWEGSQFWVTVQRTEAAERCGLHGSYVLRVEAERLTLLTVGAQSQILEPLLSWPYTLLRRYGRDKVMFSFEAGRRCPSGPGTFTFQTAQGNDIFQAVETAIHRQKAQGKAGQGHDVLRADSHEGEVAEGKLPSPPGPQELLDSPPALYAEPLDSLRIAPCPSQDSLYSDPLDSTSAQAGEGVQRKKPLYWDLYEHAQQQLLKAKLTDPKEDPIYDEPEGLAPVPPQGLYDLPREPKDAWWCQARVKEEGYELPYNPATDDYAVPPPRSTKPLLAPKPQGPAFPEPGTATGSGIKSHNSALYSQVQKSGASGSWDCGLSRVGTDKTGVKSEGST [DOK1]
- solubility change mitosis (log2) (HeLa Kyoto [1]): 0.00435
- solubility in G1/S (log2) (HeLa Kyoto [2]): -0.257

Sequence: MDPGWGQRDVGWAALLILFAASLLTVFAWLLQYARGLWLARARGDRGPGPALAGEPAGSLRELGVWRSLLRLRATRAGAAEEPGVRGLLASLFAFKSFRENWQRAWVRALNEQACRNGSSIQIAFEEVPQLPPRASISHVTCVDQSEHTMVLRCQLSAEEVRFPVSVTQQSPAAVSMETYHVTLTLPPTQLEVNLEEIPGEGLLISWAFTDRPDLSLTVLPKLQARERGEEQVELSTIEELIKDAIVSTQPAMMVNLRACSAPGGLVPSEKPPMMPQAQPAIPRPNRLFLRQLRASHLGNELEGTEELCCVAELDNPMQQKWTKPARAGSEVEWTEDLALDLGPQSRELTLKVLRSSSCGDTELLGQATLPVGSPSRPLSRRQLCPLTPGPGKALGPAATMAVELHYEEGSPRNLGTPTSSTPRPSITPTKKIELDRTIMPDGTIVTTVTTVQSRPRIDGKLDSPSRSPSKVEVTEKTTTVLSESSGPSNTSHSSSRDSHLSNGLDPVAETAIRQLTEPSGRVAKKTPTKRSTLIISGVSKVPIAQDELALSLGYAASLEASVQDDAGTSGGPSSPPSDPPAMSPGPLDALSSPTSVQEADETTRSDISERPSVDDIESETGSTGALETRSLKDHKVSFLRSGTKLIFRRRPRQKEAGLSQSHDDLSNATATPSVRKKAGSFSRRLIKRFSFKSKPKANGNPSPQL [C2CD2L]
- solubility change mitosis (log2) (HeLa Kyoto [1]): -0.0722
- solubility in G1/S (log2) (HeLa Kyoto [2]): -0.0395

Sequence: MDPQPPPPAQGSPPHRGRGRGRGRGRGRGRGRGRGGAGAPRAPLPCPTCGRLFRFPYYLSRHRLSHSGLRPHACPLCPKAFRRPAHLSRHLRGHGPQPPLRCAACPRTFPEPAQLRRHLAQEHAGGEVELAIERVAKETAEPSWGPQDEGSEPPTTAAAGATEEEAVAAWPETWPAGEPSTLAAPTSAAEPRESESEEAEAGAAELRAELALAAGRQEEKQVLLQADWTLLCLRCREAFATKGELKAHPCLRPEGEQEGEGGPPPRPKRHQCSICLKAFARPWSLSRHRLVHSTDRPFVCPDCGLAFRLASYLRQHRRVHGPLSLLAPLPAAGKKDDKASGARNSAKGPEGGEGAECGGASEGGEGQNGGDAAPARPPAGEPRFWCPECGKGFRRRAHLRQHGVTHSGARPFQCVRCQREFKRLADLARHAQVHAGGPAPHPCPRCPRRFSRAYSLLRHQRCHRAELERAAALQALQAQAPTSPPPPPPPLKAEQEEEGLPLPLANIKEEPPSPGTPPQSPPAPPVFLSASCFDSQDHSAFEMEEEEVDSKAHLRGLGGLAS [ZNF579]
- solubility change mitosis (log2) (HeLa Kyoto [1]): 0.288
- solubility in G1/S (log2) (HeLa Kyoto [2]): -0.0421

Sequence: MDPRGTKRGAEKTEVAEPRNKLPRPAPSLPTDPALYSGPFPFYRRPSELGCFSLDAQRQYHGDARALRYYSPPPTNGPGPNFDLRDGYPDRYQPRDEEVQERLDHLLCWLLEHRGRLEGGPGWLAEAIVTWRGHLTKLLTTPYERQEGWQLAASRFQGTLYLSEVETPNARAQRLARPPLLRELMYMGYKFEQYMCADKPGSSPDPSGEVNTNVAFCSVLRSRLGSHPLLFSGEVDCTDPQAPSTQPPTCYVELKTSKEMHSPGQWRSFYRHKLLKWWAQSFLPGVPNVVAGFRNPDGFVSSLKTFPTMKMFEYVRNDRDGWNPSVCMNFCAAFLSFAQSTVVQDDPRLVHLFSWEPGGPVTVSVHQDAPYAFLPIWYVEAMTQDLPSPPKTPSPK [DXO]
- solubility change mitosis (log2) (HeLa Kyoto [1]): -0.2
- solubility in G1/S (log2) (HeLa Kyoto [2]): 0.0451

Sequence: MDPRVAWIQPEQKGPANALWMQIWETSQGVGRGGSGFASYFCLNSPALDTAAAAGAAGRGSGGLGPALPAASPPPPGPTAPAALPPALLTALGPAAEGARRLHKSPSLSSSSSSSSSNAESGTESPGCSSSSSSSASLGRPGGGRGGAFFNFADGAPSAPGTANGHPGPRGPAPAGSPSQHQFHPGRRKRENKASTYGLNYLLSGSRAAALSGGGGPGAQAPRPGTPWKSRAYSPGIQGLHEEIIDFYNFMSPCPEEAAMRREVVKRIETVVKDLWPTADVQIFGSFSTGLYLPTSDIDLVVFGKWERPPLQLLEQALRKHNVAEPCSIKVLDKATVPIIKLTDQETEVKVDISFNMETGVRAAEFIKNYMKKYSLLPYLILVLKQFLLQRDLNEVFTGGISSYSLILMAISFLQLHPRIDARRADENLGMLLVEFFELYGRNFNYLKTGIRIKEGGAYIAKEEIMKAMTSGYRPSMLCIEDPLLPGNDVGRSSYGAMQVKQVFDYAYIVLSHAVSPLARSYPNRDAESTLGRIIKVTQEVIDYRRWIKEKWGSKAHPSPGMDSRIKIKERIATCNGEQTQNREPESPYGQRLTLSLSSPQLLSSGSSASSVSSLSGSDVDSDTPPCTTPSVYQFSLQAPAPLMAGLPTALPMPSGKPQPTTSRTLIMTTNNQTRFTIPPPTLGVAPVPCRQAGVEGTASLKAVHHMSSPAIPSASPNPLSSPHLYHKQHNGMKLSMKGSHGHTQGGGYSSVGSGGVRPPVGNRGHHQYNRTGWRRKKHTHTRDSLPVSLSR [PAPD7]
- solubility change mitosis (log2) (HeLa Kyoto [1]): 0.0856
- solubility in G1/S (log2) (HeLa Kyoto [2]): -0.21

Sequence: MDRDLLRQSLNCHGSSLLSLLRSEQQDNPHFRSLLGSAAEPARGPPPQHPLQGRKEKRVDNIEIQKFISKKADLLFALSWKSDAPATSEINEDSEDHYAIMPPLEQFMEIPSMDRRELFFRDIERGDIVIGRISSIREFGFFMVLICLGSGIMRDIAHLEITALCPLRDVPSHSNHGDPLSYYQTGDIIRAGIKDIDRYHEKLAVSLYSSSLPPHLSGIKLGVISSEELPLYYRRSVELNSNSLESYENVMQSSLGFVNPGVVEFLLEKLGIDESNPPSLMRGLQSKNFSEDDFASALRKKQSASWALKCVKIGVDYFKVGRHVDAMNEYNKALEIDKQNVEALVARGALYATKGSLNKAIEDFELALENCPTHRNARKYLCQTLVERGGQLEEEEKFLNAESYYKKALALDETFKDAEDALQKLHKYMQKSLELREKQAEKEEKQKTKKIETSAEKLRKLLKEEKRLKKKRRKSTSSSSVSSADESVSSSSSSSSSGHKRHKKHKRNRSESSRSSRRHSSRASSNQIDQNRKDECYPVPANTSASFLNHKQEVEKLLGKQDRLQYEKTQIKEKDRCPLSSSSLEIPDDFGGRSEDPRDFYNSYKTQAGSSKTEKPYKSERHFSSRRNSSDSFCRNSEDKIYGYRRFEKDIEGRKEHYRRWEPGSVRHSTSPASSEYSWKSVEKYKKYAHSGSRDFSRHEQRYRLNTNQGEYEREDNYGEDIKTEVPEEDALSSKEHSESSVKKNLPQNLLNIFNQIAEFEKEKGNKSKN [TTC14]
- solubility change mitosis (log2) (HeLa Kyoto [1]): 0.329
- solubility in G1/S (log2) (HeLa Kyoto [2]): -0.392

Sequence: MDRGQPSLEPAAAAPRASGRCVIAPVRAVLRLRRRVCVLRKRRLLQPGGGPDVGTGAPRPGCSPRAPRADLDQPKFFTFDSPAELPSRTPRKKRRRSRLVLYPETSRKYRPRVEHRSRAQRCLLLLVAIVGFQVLNAIENLDDNAQRYDLDGLEKALQRAVFGQPAAVSRIVALMRDYLATHVHSRPLLLALHGPSGVGKSHVGRLLARHFRSVLEDSALVLQYHARHHCPEARAAQDCREELARRVADVVARAEAEEKTPLLVLDDVELMPRPLLDELHGFLQPQRSHHFHNAIYVLLSGAGGAEVTRFVLQNASRALPLRPDGFRSAEAAAAQAEEDLRASLLAVLSREHPLWQAAAIVPFLLLDKRDVVSCFRDEMAGEGFFPDQARAENLAAQLSFYRVAGREFAVTGCKQVVATVNLL [TOR4A]
- solubility change mitosis (log2) (HeLa Kyoto [1]): 0.0625
- solubility in G1/S (log2) (HeLa Kyoto [2]): 0.137

Sequence: MDSPGYNCFVDKDKMDAAIQDLGPKELSCTELQELKQLARQGYWAQSHALRGKVYQRLIRDIPCRTVTPDASVYSDIVGKIVGKHSSSCLPLPEFVDNTQVPSYCLNARGEGAVRKILLCLANQFPDISFCPALPAVVALLLHYSIDEAECFEKACRILACNDPGRRLIDQSFLAFESSCMTFGDLVNKYCQAAHKLMVAVSEDVLQVYADWQRWLFGELPLCYFARVFDVFLVEGYKVLYRVALAILKFFHKVRAGQPLESDSVKQDIRTFVRDIAKTVSPEKLLEKAFAIRLFSRKEIQLLQMANEKALKQKGITVKQKSVSLSKRQFVHLAVHAENFRSEIVSVREMRDIWSWVPERFALCQPLLLFSSLQHGYSLARFYFQCEGHEPTLLLIKTTQKEVCGAYLSTDWSERNKFGGKLGFFGTGECFVFRLQPEVQRYEWVVIKHPELTKPPPLMAAEPTAPLSHSASSDPADRLSPFLAARHFNLPSKTESMFMAGGSDCLIVGGGGGQALYIDGDLNRGRTSHCDTFNNQPLCSENFLIAAVEAWGFQDPDTQ [TBC1D24]
- solubility change mitosis (log2) (HeLa Kyoto [1]): -0.16
- solubility in G1/S (log2) (HeLa Kyoto [2]): -0.273

Sequence: MDSPWDELALAFSRTSMFPFFDIAHYLVSVMAVKRQPGAAALAWKNPISSWFTAMLHCFGGGILSCLLLAEPPLKFLANHTNILLASSIWYITFFCPHDLVSQGYSYLPVQLLASGMKEVTRTWKIVGGVTHANSYYKNGWIVMIAIGWARGAGGTIITNFERLVKGDWKPEGDEWLKMSYPAKVTLLGSVIFTFQHTQHLAISKHNLMFLYTIFIVATKITMMTTQTSTMTFAPFEDTLSWMLFGWQQPFSSCEKKSEAKSPSNGVGSLASKPVDVASDNVKKKHTKKNE [TMEM38B]
- solubility change mitosis (log2) (HeLa Kyoto [1]): -0.17
- solubility in G1/S (log2) (HeLa Kyoto [2]): -0.0322

Sequence: MDTKHFLPLDFSTQVNSSLTSPTGRGSMAAPSLHPSLGPGIGSPGQLHSPISTLSSPINGMGPPFSVISSPMGPHSMSVPTTPTLGFSTGSPQLSSPMNPVSSSEDIKPPLGLNGVLKVPAHPSGNMASFTKHICAICGDRSSGKHYGVYSCEGCKGFFKRTVRKDLTYTCRDNKDCLIDKRQRNRCQYCRYQKCLAMGMKREAVQEERQRGKDRNENEVESTSSANEDMPVERILEAELAVEPKTETYVEANMGLNPSSPNDPVTNICQAADKQLFTLVEWAKRIPHFSELPLDDQVILLRAGWNELLIASFSHRSIAVKDGILLATGLHVHRNSAHSAGVGAIFDRVLTELVSKMRDMQMDKTELGCLRAIVLFNPDSKGLSNPAEVEALREKVYASLEAYCKHKYPEQPGRFAKLLLRLPALRSIGLKCLEHLFFFKLIGDTPIDTFLMEMLEAPHQMT [RXRA]
- solubility change mitosis (log2) (HeLa Kyoto [1]): -0.151
- solubility in G1/S (log2) (HeLa Kyoto [2]): 0.173

Sequence: MEAAETEAEAAALEVLAEVAGILEPVGLQEEAELPAKILVEFVVDSQKKDKLLCSQLQVADFLQNILAQEDTAKGLDPLASEDTSRQKAIAAKEQWKELKATYREHVEAIKIGLTKALTQMEEAQRKRTQLREAFEQLQAKKQMAMEKRRAVQNQWQLQQEKHLQHLAEVSAEVRERKTGTQQELDRVFQKLGNLKQQAEQERDKLQRYQTFLQLLYTLQGKLLFPEAEAEAENLPDDKPQQPTRPQEQSTGDTMGRDPGVSFKAVGLQPAGDVNLP [ZWINT]
- solubility change mitosis (log2) (HeLa Kyoto [1]): 0.896
- solubility in G1/S (log2) (HeLa Kyoto [2]): -0.0767

Sequence: MEAKTLGTVTPRKPVLSVSARKIKDNAADWHNLILKWETLNDAGFTTANNIANLKISLLNKDKIELDSSSPASKENEEKVCLEYNEELEKLCEELQATLDGLTKIQVKMEKLSSTTKGICELENYHYGEESKRPPLFHTWPTTHFYEVSHKLLEMYRKELLLKRTVAKELAHTGDPDLTLSYLSMWLHQPYVESDSRLHLESMLLETGHRAL [CINP]
- solubility change mitosis (log2) (HeLa Kyoto [1]): 0.525
- solubility in G1/S (log2) (HeLa Kyoto [2]): 0.148
